Data published in article PMC7840889, “Architecture of the Tuberous Sclerosis Protein Complex” (Journal of Molecular Biology, 2021).
One block for each binder: values may come before it.

B1: FLAG-tagged full-length human TSC1 (natural protein, UniProt Q92574-1 1-1164, looked up)
chain: MAQQANVGELLAMLDSPMLGVRDDVTAVFKENLNSDRGPMLVNTLVDYYLETSSQPALHILTTLQEPHDKHLLDRINEYVGKAATRLSILSLLGHVIRLQPSWKHKLSQAPLLPSLLKCLKMDTDVVVLTTGVLVLITMLPMIPQSGKQHLLDFFDIFGRLSSWCLKKPGHVAEVYLVHLHASVYALFHRLYGMYPCNFVSFLRSHYSMKENLETFEEVVKPMMEHVRIHPELVTGSKDHELDPRRWKRLETHDVVIECAKISLDPTEASYEDGYSVSHQISARFPHRSADVTTSPYADTQNSYGCATSTPYSTSRLMLLNMPGQLPQTLSSPSTRLITEPPQATLWSPSMVCGMTTPPTSPGNVPPDLSHPYSKVFGTTAGGKGTPLGTPATSPPPAPLCHSDDYVHISLPQATVTPPRKEERMDSARPCLHRQHHLLNDRGSEEPPGSKGSVTLSDLPGFLGDLASEEDSIEKDKEEAAISRELSEITTAEAEPVVPRGGFDSPFYRDSLPGSQRKTHSAASSSQGASVNPEPLHSSLDKLGPDTPKQAFTPIDLPCGSADESPAGDRECQTSLETSIFTPSPCKIPPPTRVGFGSGQPPPYDHLFEVALPKTAHHFVIRKTEELLKKAKGNTEEDGVPSTSPMEVLDRLIQQGADAHSKELNKLPLPSKSVDWTHFGGSPPSDEIRTLRDQLLLLHNQLLYERFKRQQHALRNRRLLRKVIKAAALEEHNAAMKDQLKLQEKDIQMWKVSLQKEQARYNQLQEQRDTMVTKLHSQIRQLQHDREEFYNQSQELQTKLEDCRNMIAELRIELKKANNKVCHTELLLSQVSQKLSNSESVQQQMEFLNRQLLVLGEVNELYLEQLQNKHSDTTKEVEMMKAAYRKELEKNRSHVLQQTQRLDTSQKRILELESHLAKKDHLLLEQKKYLEDVKLQARGQLQAAESRYEAQKRITQVFELEILDLYGRLEKDGLLKKLEEEKAEAAEAAEERLDCCNDGCSDSMVGHNEEASGHNGETKTPRPSSARGSSGSRGGGGSSSSSSELSTPEKPPHQRAGPFSSRWETTMGEASASIPTTVGSLPSSKSFLGMKARELFRNKSESQCDEDGMTSSLSESLKTELGKDLGVEAKIPLNLDGPHPSPPTPDSVGQLHIMDYNETHHEHS
notes: human TSC1, full length, 1164 amino acids, UniProtKB/Swiss-Prot Q92574-1; Two copies stand in the TSCC; also called hamartin
B2: FLAG-tagged full-length human TSC2 (natural protein)
chain: not shown
notes: human TSC2, full length, 1807 amino acids, UniProtKB/Swiss-Prot P49815-1; Could not be purified in the absence of TSC1; two copies stand in the TSCC; also called tuberin
B3: TSC1(Δ400-600) (natural protein, human, UniProt Q92574-1 1-1164, looked up)
chain: MAQQANVGELLAMLDSPMLGVRDDVTAVFKENLNSDRGPMLVNTLVDYYLETSSQPALHILTTLQEPHDKHLLDRINEYVGKAATRLSILSLLGHVIRLQPSWKHKLSQAPLLPSLLKCLKMDTDVVVLTTGVLVLITMLPMIPQSGKQHLLDFFDIFGRLSSWCLKKPGHVAEVYLVHLHASVYALFHRLYGMYPCNFVSFLRSHYSMKENLETFEEVVKPMMEHVRIHPELVTGSKDHELDPRRWKRLETHDVVIECAKISLDPTEASYEDGYSVSHQISARFPHRSADVTTSPYADTQNSYGCATSTPYSTSRLMLLNMPGQLPQTLSSPSTRLITEPPQATLWSPSMVCGMTTPPTSPGNVPPDLSHPYSKVFGTTAGGKGTPLGTPATSPPPAPPPPYDHLFEVALPKTAHHFVIRKTEELLKKAKGNTEEDGVPSTSPMEVLDRLIQQGADAHSKELNKLPLPSKSVDWTHFGGSPPSDEIRTLRDQLLLLHNQLLYERFKRQQHALRNRRLLRKVIKAAALEEHNAAMKDQLKLQEKDIQMWKVSLQKEQARYNQLQEQRDTMVTKLHSQIRQLQHDREEFYNQSQELQTKLEDCRNMIAELRIELKKANNKVCHTELLLSQVSQKLSNSESVQQQMEFLNRQLLVLGEVNELYLEQLQNKHSDTTKEVEMMKAAYRKELEKNRSHVLQQTQRLDTSQKRILELESHLAKKDHLLLEQKKYLEDVKLQARGQLQAAESRYEAQKRITQVFELEILDLYGRLEKDGLLKKLEEEKAEAAEAAEERLDCCNDGCSDSMVGHNEEASGHNGETKTPRPSSARGSSGSRGGGGSSSSSSELSTPEKPPHQRAGPFSSRWETTMGEASASIPTTVGSLPSSKSFLGMKARELFRNKSESQCDEDGMTSSLSESLKTELGKDLGVEAKIPLNLDGPHPSPPTPDSVGQLHIMDYNETHHEHS
notes: human TSC1 (1164 amino acids, Q92574-1) with an internal deletion of residues 400-600; also called TSC1 internal deletion construct; TSC1 of TSCC1Δ

What was measured:
[1] = target: B2; assay: cryo-EM structure; single-particle cryo-EM of purified TSCCFL at 0.1-0.2 mg/mL on graphene oxide; 25 mM K-HEPES pH 7.6, 175 mM KCl or 150 mM LiCl, 1 mM TCEP; body 4.6 Å, pincer 8.1 Å, tail 8.2 Å; settings: both partners purified
[2] = target: the molecule itself; assay: SEC-MALS; TSCC1Δ (TSC1(Δ400-600)-TSC2-TBC1D7) on Superose 6 10/300; 25 mM K-HEPES pH 7.6, 250 mM KCl, 0.5 mM EDTA, 1 mM TCEP; room temperature
[3] = target: B2; assay: as above; settings: both partners purified
TSC1(Δ400-600) = target: B3; assay: as above; settings: both partners purified
[4] = target: B1; assay: cryo-EM structure; single-particle cryo-EM of purified TSCCFL at 0.1-0.2 mg/mL on graphene oxide; 25 mM K-HEPES pH 7.6, 175 mM KCl or 150 mM LiCl, 1 mM TCEP; body 4.6 Å, pincer 8.1 Å, tail 8.2 Å; settings: both partners purified

Binder: B1
- binding result [1]: binds

Binder: B2
- stoichiometry N [2]: ~2

Binder: B3
- binding result [3]: binds
- stoichiometry N [2]: ~2

- binding result (TSC1(Δ400-600)): binds
- binding result [4]: binds
B4: FLAG-tagged human TBC1D7 (natural protein, UniProt Q9P0N9 1-293, looked up)
chain: MTEDSQRNFRSVYYEKVGFRGVEEKKSLEILLKDDRLDTEKLCTFSQRFPLPSMYRALVWKVLLGILPPHHESHAKVMMYRKEQYLDVLHALKVVRFVSDATPQAEVYLRMYQLESGKLPRSPSFPLEPDDEVFLAIAKAMEEMVEDSVDCYWITRRFVNQLNTKYRDSLPQLPKAFEQYLNLEDGRLLTHLRMCSAAPKLPYDLWFKRCFAGCLPESSLQRVWDKVVSGSCKILVFVAVEILLTFKIKVMALNSAEKITKFLENIPQDSSDAIVSKAIDLWHKHCGTPVHSS
notes: human TBC1D7, 293 amino acids, GenBank AAH07054; part of the FL TSC1-TSC2-TBC1D7 (TSCCFL) plasmids; One copy stands in the TSCC
